From publication PMC4297981 (Scientific Reports, 2015)

Target: the molecule itself
Assay: SDS-PAGE

B1: integrin β1a-TMC variant L749C (transmembrane and cytoplasmic domains, V717-K798, cys-less background), reconstituted in POPC/POPG liposomes (domain or fragment, human, UniProt P05556-1 717-798, looked up)
chain: VVENPESPTGPDIIPIVAGVVAGIVLIGLALLCIWKLLMIIHDRREFAKFEKEKMNAKWDTGENPIYKSAVTTVVNPKYEGK
- binding result: binds
